T1: human CD20 (human, UniProt P11836 1-297)
T1 construct: whole, on cells; also called human B-lymphocyte-restricted differentiation antigen; Bp35
T1 sequence (looked up): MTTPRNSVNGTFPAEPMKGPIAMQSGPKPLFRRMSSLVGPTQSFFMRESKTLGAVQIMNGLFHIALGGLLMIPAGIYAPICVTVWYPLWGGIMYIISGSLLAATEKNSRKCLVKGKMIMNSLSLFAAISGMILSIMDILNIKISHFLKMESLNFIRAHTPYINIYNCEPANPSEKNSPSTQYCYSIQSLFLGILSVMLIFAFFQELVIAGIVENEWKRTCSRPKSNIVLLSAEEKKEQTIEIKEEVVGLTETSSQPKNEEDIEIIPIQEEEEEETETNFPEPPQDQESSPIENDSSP


Assays:
[1] = target: T1, human CD20; assay: dissociation of DyLight 488-labelled antibody from Raji cells at 37 C in excess unlabelled antibody, FACS MFI; Study 1; set-up: unit not given here
Description: (§1) All antibodies were conjugated to a fluorescein-like fluorophore, DyLight 488, according to vendor instructions (Pierce Cat. No. 53025). Following conjugation, labeled antibody was separated from free dye using chromatography columns provided in the labeling kit. […] Purified labeled antibodies were stored at 4° C. in PBS protected from light.
(§2) To measure antibody dissociation from cells, 10⁶ Raji cells were suspended in PBS containing 1% bovine serum albumin (PBS/BSA). Labeled antibody was added to a final concentration of 5 ug/ml in a volume of 1.0 ml. Following a 30 minute incubation at 37° C., unlabeled (“cold”) antibody was added to a final concentration of 1000 ug/ml. Labeled cells mixed with cold antibody were returned to 37° C. for 4 hours. At 20-minute intervals, 100 ul aliquots of cells were withdrawn from each sample, 400 uL cold PBS/BSA containing propidium iodide was added and mean fluorescence intensity (MFI) of the cell population excluding dead cells (PI⁺) determined by FACS.

[2] = target: T1, human CD20; assay: cell-based or functional assay
[3] = target: T1, human CD20; assay: dissociation of DyLight 488-labelled antibody from Raji cells at 37 C in excess unlabelled antibody, FACS MFI; average of Studies 1 and 2; set-up: unit not given here
Description: as §1, §2

[4] = target: T1, human CD20; assay: dissociation of DyLight 488-labelled antibody from Raji cells at 37 C in excess unlabelled antibody, FACS MFI; Study 2; set-up: unit not given here
Description: as §1, §2

[5] = target: T1, human CD20; assay: ELISA on fixed Raji cells (CD20+), anti-human kappa detection
Description: Raji cells (80 μl; 1-2×10⁶ cells/ml in 24 ml with fresh growth medium diluted with 0.11 vol of 10×PBS (MPBS) and 8 ml 8% paraformaldehyde (in PBS)) were added to 96-well poly-D-lysine-coated plate and centrifuged at 2500 rpm (Beckman 6L) at 25° C. for 60 minutes. The pellets were washed 4 times with 400 μl PBS, Tween 20 (0.02% v/v). 50 μl of MPBS was added to each well after the final wash, and incubated for 1 hour at room temperature, and the blocking buffer was then discarded. Serial dilutions of the 1F5 antibodies were prepared in MPBS in a separate 96-well plate, transferred to the Raji-cell coated plate and incubated at room temperature for 1 hour. The antibody solution was then discarded and the plates were washed 6 times with 400 μl PBS buffer. Goat anti-human kappa (Sigma A7164) was prepared by diluting the stock antibody solution 1:2000 in MPBS, added to the washed wells, and incubated again at room temperature for 1 hour. The plates were again washed 6 times in 400 μl PBS buffer. 100 μl of K-blue TMB solution was added to each well. The reactions were stopped by added 50 μl red stop after 30 minutes, and the absorbance was read at 650 nm.

[6] = target: T1, human CD20; assay: cell-based or functional assay; remark: listed apart in the source

Binder | Half-life (dissociation from Raji cells) [1] | LogEC50, complement dependent cytotoxicity (CDC) on Raji cells [2] | Half-life (dissociation from Raji cells), average [3] | Half-life (dissociation from Raji cells) [4] | binding result [5] | complement dependent cytotoxicity (CDC) on Raji cells, relative to rituximab [6]
chimeric antibody c1F5 (c1F5VH x c1F5VK) (antibody, human IgG1, kappa, V domains shown, Mouse 1F5 variable regions on human gamma1 / kappa constant regions; also called chimeric 1F5) VH: QVQLRQPGAELVKPGASVKMSCKASGYTFTSYNMHWVKQTPGQGLEWIGAIYPGNGDTSYNQKFKGKATLTADKSSSTAYMQLSSLTSEDSAVYYCARSHYGSNYVDYFDYWGQGTLVTVST VL: QIVLSQSPAILSASPGEKVTMTCRASSSLSFMHWYQQKPGSSPKPWIYATSNLASGVPARFSGSGSGTSYSLTISRVEAEDAATYFCHQWSSNPLTFGAGTKVEIKR | 59 | -0.781 | 58 | 57 | – | –
chimeric c1F5VH x 1F5RKB12 (antibody, human IgG1, kappa, V domains shown, IgG1 kappa from HEK293T conditioned medium) VH: QVQLRQPGAELVKPGASVKMSCKASGYTFTSYNMHWVKQTPGQGLEWIGAIYPGNGDTSYNQKFKGKATLTADKSSSTAYMQLSSLTSEDSAVYYCARSHYGSNYVDYFDYWGQGTLVTVST VL: EIVLTQSPGTLSLSPGERATLSCRASSSLSFMHWYQQKPGQAPRPWIYATSNLASGIPARFSGSGSGTDYTLTISRLEPEDFAVYFCHQWSSNPLTFGQGTKVELKR | – | – | – | – | binds | –
rituximab (antibody, V domains shown) VH: QVQLQQPGAELVKPGASVKMSCKASGYTFTSYNMHWVKQTPGRGLEWIGAIYPGNGDTSYNQKFKGKATLTADKSSSTAYMQLSSLTSEDSAVYYCARSTYYGGDWYFNVWGAGTTVTVSA VL: QIVLSQSPAILSASPGEKVTMTCRASSSVSYIHWFQQKPGSSPKPWIYATSNLASGVPVRFSGSGSGTSYSLTISRVEAEDAATYYCQQWTSNPPTFGGGTKLEIK | 24 | -1.73 | 24 | 24 | – | –
1F5RHA x 1F5RKB11 (antibody, human IgG1, kappa, V domains shown, also called RHA x RKB11; Variant D) VH: QVQLVQSGAEVKKPGASVKVSCKASGYTFTSYNMHWVRQAPGQRLEWIGAIYPGNGDTSYNQKFKGRVTVTRDTSANTAYMELSSLKSEDTAVYYCARSHYGSNYVDYFDYWGQGTLVTVSS VL: EIVLTQSPSSLSASVGDRVTITCRASSSLSFMHWYQQKPGKAPKPWIYATSNLASGVPSRFSGSGSGTDYTLTISSLQPEDFATYFCHQWSSNPLTFGGGTKVEIKR | 44 | -1.06 | 52 | 59 | – | –
1F5RHA x 1F5RKB12 (antibody, human IgG1, kappa, V domains shown, also called RHA x RKB12; Variant F) VH: QVQLVQSGAEVKKPGASVKVSCKASGYTFTSYNMHWVRQAPGQRLEWIGAIYPGNGDTSYNQKFKGRVTVTRDTSANTAYMELSSLKSEDTAVYYCARSHYGSNYVDYFDYWGQGTLVTVSS VL: EIVLTQSPGTLSLSPGERATLSCRASSSLSFMHWYQQKPGQAPRPWIYATSNLASGIPARFSGSGSGTDYTLTISRLEPEDFAVYFCHQWSSNPLTFGQGTKVELKR | 72 | -1.13 | 68 | 64 | – | –
1F5RHA x chimeric c1F5VK (antibody, human IgG1, kappa, V domains shown, IgG1 kappa from HEK293T conditioned medium; also called chimeric VK x 1F5RHA) VH: QVQLVQSGAEVKKPGASVKVSCKASGYTFTSYNMHWVRQAPGQRLEWIGAIYPGNGDTSYNQKFKGRVTVTRDTSANTAYMELSSLKSEDTAVYYCARSHYGSNYVDYFDYWGQGTLVTVSS VL: QIVLSQSPAILSASPGEKVTMTCRASSSLSFMHWYQQKPGSSPKPWIYATSNLASGVPARFSGSGSGTSYSLTISRVEAEDAATYFCHQWSSNPLTFGAGTKVEIKR | – | – | – | – | binds | –
1F5RHA x 1F5RKG11 (antibody, human IgG1, kappa, V domains shown, also called RHA x RKG11; 1F5RKG11 x 1F5RHA) VH: QVQLVQSGAEVKKPGASVKVSCKASGYTFTSYNMHWVRQAPGQRLEWIGAIYPGNGDTSYNQKFKGRVTVTRDTSANTAYMELSSLKSEDTAVYYCARSHYGSNYVDYFDYWGQGTLVTVSS VL: EIVLTQSPSSLSASVGDRVTITCRASSSLSFMHWYQQKPGKAPKPLIYATSNLASGVPSRFSGSGSGTDFTLTISSLQPEDFATYYCHQWSSNPLTFGGGTKVEIKR | 67 | -0.773 | 65 | 63 | – | ~10 times less than rituximab
1F5RHA x 1F5RKF12 (antibody, human IgG1, kappa, V domains shown, also called RHA x RKF12; 1F5RKF12 x 1F5RHA) VH: QVQLVQSGAEVKKPGASVKVSCKASGYTFTSYNMHWVRQAPGQRLEWIGAIYPGNGDTSYNQKFKGRVTVTRDTSANTAYMELSSLKSEDTAVYYCARSHYGSNYVDYFDYWGQGTLVTVSS VL: EIVLTQSPGTLSLSPGERATLSCRASSSLSFMHWYQQKPGQAPRPLIYATSNLASGIPARFSGSGSGTDFTLTISRLEPEDFAVYFCHQWSSNPLTFGQGTKVELKR | 67 | -1.15 | 66 | 65 | – | –
chimeric c1F5VH x 1F5RKB11 (antibody, human IgG1, kappa, V domains shown, IgG1 kappa from HEK293T conditioned medium; also called chimeric VH x 1F5RKB11) VH: QVQLRQPGAELVKPGASVKMSCKASGYTFTSYNMHWVKQTPGQGLEWIGAIYPGNGDTSYNQKFKGKATLTADKSSSTAYMQLSSLTSEDSAVYYCARSHYGSNYVDYFDYWGQGTLVTVST VL: EIVLTQSPSSLSASVGDRVTITCRASSSLSFMHWYQQKPGKAPKPWIYATSNLASGVPSRFSGSGSGTDYTLTISSLQPEDFATYFCHQWSSNPLTFGGGTKVEIKR | – | – | – | – | binds | –
1F5RHB x chimeric c1F5VK (antibody, human IgG1, kappa, V domains shown, 1F5RHB is 1F5RHA with four back mutations) VH: QVQLVQSGAEVKKPGASVKVSCKASGYTFTSYNMHWVRQAPGQRLEWIGAIYPGNGDTSYNQKFKGRATLTADKSANTAYMELSSLKSEDTAVYYCARSHYGSNYVDYFDYWGQGTLVTVSS VL: QIVLSQSPAILSASPGEKVTMTCRASSSLSFMHWYQQKPGSSPKPWIYATSNLASGVPARFSGSGSGTSYSLTISRVEAEDAATYFCHQWSSNPLTFGAGTKVEIKR | – | – | – | – | binds | –
